Measurements: patent publication US7271245B2, “Methods and compositions for inhibition of metastasis” (The Scripps Research Institute, priority 2004, dated 2007)

Experiments:
[1] = system: integrin αvβ3; experiment: Flow cytometry, scFv binding to human tumor cell panel
Description: FIGS. 1A, 1B, 1C. Patient derived scFvs Bc-12 and Bc-15 recognize tumor cell integrin αvβ3 in a cation and activation dependent manner. Flow cytometric analyses in TBS with or without 1 mM Ca^2+, 1 mM Mg^2+, or 0.2 mM Mn^2+ as indicated. Binding of soluble scFv detected after incubation with anti-Flag M2 murine mAb followed by FITC-anti mouse F(ab′)2. (A) scFv binding to human melanoma cells (M21: αvβ3 plus other αv integrins) (M21-LIIb: αIIbβ3, no αv integrins) or lung adenocarcinoma cells (UCLA-P3: αv integrins, no β3 integrin). (B) scFv binding to M21 melanoma cells. (C) scFv binding to variants of MDA-MB 435 human breast cancer cells that lack (β^3−) or express αvβ3 either in a non-activated (β3WT, ParentCo) or activated form (β3D723R, Bone, Lung, and BMS metastatic cancer cells isolated from breast cancer patient blood).
Flow cytometry. scFv binding to human tumor cells was analyzed by flow cytometry, initially with cloned scFv phage and then with purified scFv protein. Per sample, 2×10^5 tumor cells were blocked with goat serum and incubated either with scFv phage (2-5×10^10) (1 h at RT) followed by mouse anti-M13 mAb (Serotec) (30 min on ice) and goat FITC-anti mouse (Pierce) (30 min on ice), or with purified scFv (1.25 to 40 μg/ml, routinely 10 to 15 μg/ml) (45 min on ice), followed by mouse anti-FLAG mAb M2 (Sigma) (30 min on ice) and goat FITC-anti mouse. Binding/washing buffer was TBS with or without divalent cations (1 mM Ca^2+, 1 mM Mg^2+, 0.2 mM Mn^2+). Alternatively, tumor cells were washed in 10 ml of plasma (prepared freshly from human blood anticoagulated with 50 nM D-Phe-D-Pro-D-arginyl chloromethyl ketone, PPACK, Felding-Habermann et al., J. Biol. Chem. 271: 5892-5900, 1996), resuspended in plasma and then incubated sequentially, without washing, with purified scFv (45 min on ice), followed by anti-FLAG M2 (30 min on ice) and FITC-anti mouse (30 min on ice). All samples were counter stained with propidium iodide (PI) and analyzed on a Becton-Dickinson FACScan, with live gate set to exclude PI positive cells.
To generate therapeutic reagents that specifically react with activated αvβ3, a phage display library of single chain antibody fragments (scFv) was exploited. This library was derived from cancer patient blood lymphocyte cDNA libraries and allowed us to test the hypothesis that the expressed immune repertoire contains antibodies that recognize integrin αvβ3, and distinguish between its activated and non-activated forms. Mao et al., Proc. Natl. Acad. Sci. U.S.A 96: 6953-6958, 1999. A subtractive panning approach was designed based on variants of MDA-MB 435 human breast cancer cells. […] Apparently, these cells are selected during metastasis, as variant cells isolated from lung and bone metastases in immune deficient mice express constitutively activated αvβ3. To establish a cell population that uniformly expresses non-activated αvβ3, MDA-MB 435 parental cells were cloned by limiting dilution, and clones tested for αvβ3 functionality. […] A cell line, MDA-MB 435 Lung-Lung, was established which expressed αvβ3 in a constitutively activated form. This variant stems from a lung metastase of an immune deficient mouse whose mammary fat pad had been injected with parental MDA-MB 435 cells. Felding-Habermann et al., Proc. Natl. Acad. Sci. U.S.A 98: 1853-1858, 2001; Rolli et al., Proc. Natl. Acad. Sci. U.S.A 100: 9482-9487, 2003. To enrich for the ability to colonize the lung from the blood stream, the Lung variant was subsequently injected intravenously, and tumor cells cultured 3 weeks later from the excised lung. Parent Combo cells were used to subtract the scFv phage library to eliminate antibodies against antigens shared by the MDA-MB 435 cell variants. […]

[2] = system: matrix deprived BMS breast cancer cells; experiment: Apoptosis of matrix deprived breast cancer cells; assay type: cell-based, human; conditions: 3.7 μM scFv, ultra-low-adhesion plates, 20 hrs
Description: (§1) FIGS. 3A, 3B, 3C, 3D, 3E. scFv Bc-12 and Bc-15 inhibit αvβ3 mediated adhesive breast cancer cell functions. (A) Adhesion of BMS human breast cancer cells to fibrinogen (Fg), vitronectin (VN) or type I collagen (Col I) in the absence or presence of 3 μM Bc-12, Bc-15 or their RGE mutants Mut-12, Mut-15, compared to 200 μM GRGDSPK peptide (SEQ ID NO: 11). Protein coating concentrations: 10 μg/ml (VN, Col I) or 20 μg/ml (Fg). Adhesion time: 30 min at 37° C. (B) Effect of scFvs on haptotactic BMS cell migration toward a fibrinogen substrate (16 hrs at 37° C. in transwell chambers with or without 2 μM Bc-12, Bc-15 or their RGE mutants Mut-12 or Mut-15, compared to 200 μM GRGDSPK peptide) (SEQ ID NO: 11). (C) Effect of scFvs on breast cancer cell arrest during blood flow. Metastatic BMS cells, labeled with hydroethidine, were suspended in human blood (anticoagulated with 50 nM PPACK) and perfused over a collagen I matrix at a venous wall shear rate of 50 s^−1. Under these conditions, breast cancer cells arrest by αvβ3 mediated binding to adherent, thrombus forming platelets. Tumor cell adhesion was quantified by image acquisition at 30 predefined positions during blood flow. Left: representative images of platelet signal (thrombi, green fluorescence) and tumor cell signal (red fluorescence) at identical x,y positions. […]

[3] = system: BMS breast cancer cells; experiment: Antibody internalization (confocal microscopy); assay type: cell-based, human; conditions: FITC-labeled scFv, permissive temperature (37° C.)
Description: as §1, with “Metastatic BMS cells, labeled with hydroethidine, were suspended in human blood (anticoagulated with 50 nM PPACK) and perfused over a collagen I matrix at a venous wall shear rate of 50 s^−1. Under these conditions, breast cancer cells arrest by αvβ3 mediated binding to adherent, thrombus forming platelets.” left out
Antibody internalization. Breast cancer cells grown in chamber slide wells were incubated with 20 μg/ml FITC-labeled scFv in serum free EMEM for 3 h either at 4° C. or 37° C., washed 10 times, fixed and permeabilized with 95% ethanol, stained with propidium iodide, mounted in antifade solution, and analyzed with a laser scanning confocal microscope.

B1: Bc-12: patient derived human scFv antibody against activated αvβ3 with RGD motif in CDR-H3; cDNA ATCC PTA-6303 (protein)
scFv: MAQVQLVQSGAEVKKPGASVKVSCKASGYTFSNYGITWVRQAPGQGLEWMGWINNGNTHYAQKFQGRVTMTTDTSTSTAYMELRSLRSDDTAVYYCARDPRGDDEPYWGQGTLVTVSSGGGGSGGGGSGGGGSEIVLTQSPLSLPVTLGQPASISCRSSQNLVYSDGNTYLSWFQQRPGQSPRRLIYKVSNRDSGVPDRFSGSGSGTDFTLKISRVEAEDIGVYYCMQGTHWPPRTFGQGTKVEIKRGLGGLVDYKDDDDK
**Q.** With B1 as the molecule, how does the “binding in the presence of Mn2+” value ([1]; 0.2 mM Mn^2+) read?
**A.** Its value is “greatly enhanced”.

**Q.** What about the “binding in the presence of Mg2+” value ([1]; 1 mM Mg^2+, M21 cells) of the same molecule?
**A.** The value was “at the same level as Ca^2+”.

**Q.** What about the “effect of Ca2+ on Mn2+ enhanced binding” value ([1]; Ca^2+ combined with Mn^2+, M21 cells) of the same molecule?
**A.** Its value is “reduced the enhancing effect of Mn^2+”.

**Q.** And the “reactivity with human tumor cells that express or lack αvβ3” value ([1]; M21, M21-LIIb, UCLA-P3 cells, flow cytometry)?
**A.** Its value is “reacted only with cells expressing the αvβ3 heterodimer”.

**Q.** What about the “binding to M21-L cells” value ([1]; M21-L cells (no αv integrins)) of the same molecule?
**A.** Its value is “failed to bind”.

**Q.** What about the “cation requirement of binding” value ([1]; TBS with or without divalent cations) of the same molecule?
**A.** The value was “showed a cation dependence”.

**Q.** What about the “binding in the presence of Ca2+” value ([1]; physiological Ca^2+ levels (1 mM)) of the same molecule?
**A.** The value was “measurable”.

**Q.** And the “reactivity with M21-L4 cells” value ([1]; αvβ3 expression restored by transfection)?
**A.** The value was “did react”.

**Q.** And the “viability of matrix deprived cells (apoptosis)” value [2]?
**A.** Its value is “resulted in apoptotic cell death”.

**Q.** What about the “binding and internalization by adherent cells” value [3] of the same molecule?
**A.** The value was “efficiently bound and readily internalized”.
